Molecular target: SARS-CoV-2 S protein trimer (Delta B.1.617.2 India variant) [SPN-C52He] (SARS-CoV-2, UniProt P0DTC2 16-1213)
Experiment: SPR

Row | Binder | Kd [pM]
1 | 6A-3 (VHH) VHH: EVQLVESGGGLVQPGGSLRLSCAASGFTFSPSWMGWFRQAPGKEREFVATINEYGGRNYADSVKGRFTISADNSKNTAYLQMNSLKPEDTAVYYCARVDRDFDYWGQGTLVTVSS | 449
2 | 3-31 (VHH) VHH: EVQLVESGGGLVQPGGSLRLSCAASGSTFSINAMGWFRQAPGKEREFVAGITSSGGYTNYADSVKGRFTISADNSKNTAYLQMNSLKPEDTAVYYCAADGVPEYSDYASGPVWGQGTLVTVSS | < 16

Source: US20230265217A1 (published 2023)
